From the DeepSol protein solubility set

Experiment: soluble on expression in E. coli; label from the status in PepcDB or PDB records

Sequence	soluble on expression in E. coli
MGSDKIHHHHHHMDFQEKIEELRKIIKDNIEPLITSDYVHLDNPYHGNIGDILIWEGERQFLSSIKYKCLQSSSNSWCENYLHPETVILFNGGGNFGDLYRECQDFRLRVIEQFPNNRIIMFPQSIWYEDESLIAKDAAVMARHNDLTLCARDKWSYNFLKEHFGKNKILLVPDMAFYISDEYLNKYRECVFWGQKLYLRRIDKEMDFSTILDDLRGFDIRDWPSLERRPICLLILRIMKRAAYYLQKITCLTVLQRFVNRLADEYAIRIVRPYLLKRGCDFISPYSEVITTRLHGLILSILFHKPVYYINNTTGKLSAYVDTWHLQDILEVSPYVDKILEKHVD	not soluble
MGSDKIHHHHHHMDFYTIQFDDLANFESAGIFVNNKKWKHSHRILSSFEIIVMIEGVLPIQVSNTQYRVKPNKLLIIPPSAEHFGFEFTTSDIKFIWIHFNCSKFKINDEKSLFLSNIENSSIILPNYSNKLDVQRIILMSNHLLDITQENVNSIYLNLFLNSTLHEINYQTQKILKERQLSNLYLQPVREFIRINCFEDIDLGSIATHFNYNKSYLSRKYKKVMGIGIKQQINKFRISRAEYLLSNTSLTVQEISSQIGFNDEKYFMRLFRKNTNSTPSEYRKLYSQRHFNKE	not soluble
MGSDKIHHHHHHMDHQIEDLLEHWLPLADDAWVLAVITHVQGSAYRKPGAMMLFHEFGQGAGILSGGCLEADLRRYAQNAMQTKQVMCVTYDASDESDASYRLGCGGIVDIMLIPLLKENHDLGLIDLVHAFRHGQSGYYQLPLVASGTDARQYQARFYSADAAPFPISDFAKSKIVKQESNDTLVIPLRPRFHIGIFGGGIDAKPIAAIAHSLGWQVTVIDGRTAYARAADFPHAHIIKQAVGELAANVIAQLDCAVVINHNLGLDAAVLKAIQPYSLDYVALLGPAHRRDKVLAMAGLSAQSFSGVFSAPAGLALGGELPSAIALSILAQCHGVLHGATLKQLDEIMG	not soluble
MGSDKIHHHHHHMDHQMEDLLEHWLPLADDAWVLAVITHIQGSSYRKPGAMMLFHEFGQGAGILSGGCLEADLRRHAQNAMLSHQIGCVSYDATDESDASYRLGCGGKVDIMLIPLLKENHDLGLVDIVQAFRKGQSGFYQLPLVPAGSDARSYSAQFYSSENVPFATADFAKAGVLSQPSGDTLIIPIRPRFHLGIFGGGIDAKPVAAIAHSLGWQVSVFDSRTAYARTADFPHAHIVKQSPDDAAALIANLDCAVVMHHNLTLDAAALKVIQPFALKYVALLGPAHRRDKVLSIAALNVDSFSGFFSAPAGLALGGELPSAIALSILAQCHGVLHGAAFSTLDGMMP	not soluble
MGSDKIHHHHHHMDHRQTFLSRYDTAACKAAHEIISCYSTSFGLATKLLRGRIRTDISNLYAMVRIADEIVDGTAQMAGLEPNAVSQLLDDYEAAVLAAPTQRFHADPILHAWALSARRCKFKTEHVQAFFTSMRNDLHKHNYEAAEFNEYVYGSAEVIGLMCLDAFLVEQHPRPHERTMMEHGARSLGSAFQKINFLRDLEEDTHVLGRNYFPQLTGELTDATKALLVADIRTDLAAAYRCIPLLPFDARVGVQAAADLFTALTDRIQEASAVEVTHTRIRIPKAQKIAIITRAPWRALHG	not soluble
MGSDKIHHHHHHMDIPHQRLVYFQVTIEAGSVRQAAARLDIAPSAVSRQLSLIEEALGAPLLERSRQGVVPTPVGEMLLDYCRKRAALDDRFSETLDAYQRLETGHLSLTVGEGFVGDLLDTPLRTFTERYRGVRLDVNTGSTSDIIEAVVEDEAHIGLMYHERLHPQLRFWHSSRQPLVALMSPSHPLAAVENELPLATLSEHPMALWRTGHGVRQLVDEGFREAGLGQHVTMQTNSLSVLLHAARSELTLTLLPAFAAARELEDGALVARAVDCERFRQAHAHIITRVGRRMPKAGLQLLRHLERWMRAFKSRLVSG	not soluble
MGSDKIHHHHHHMDKYLSANSLEGVIDNEFSMPAPRWLNTYPAGPYRFINREFFIIAYETDPDLLQAILPPDMELLEPVVKFEFIRMPDSTGFGDYTESGQVVPVRYKGEEGGFTISMFLDCHAPIAGGREIWGFPKKLAKPKLFVEEDTLIGILKYGSIDIAIATMGYKHRPLDAEKVLESVKKPVFLLKNIPNVDGTPLVNQLTKTYLTDITVKGAWTGPGSLELHPHALAPISNLYIKKIVSVSHFITDLTLPYGKVVADYLA	not soluble
MGSDKIHHHHHHMDLMSFKEREISKKDCVELFEDTENFFDILKLADSIRKDIVGDTVTFVKNTNIETTNVCTMGCKFCAFSVSKNSPEAFKLDADEIAKKAVIAKKSGLTEVTIHGGIHPDVDTHFQVETINKVNSATSKLGGIYTHAYSPQEILNGAENAGLSIKEALKMLNEAGLRTIPGTAAEILDDEVRSDICPLKMSTKKWIDIMKTAHKTGIKTTSTIIYGHVEEYKHIVDHLSILKELQEETGGITEFIPMSFLHENTPLYKSGRVTDGASGLYELKLYAIARILFKESIKNIQAPRVKIGTKLSQLILKSGANDLGGTLVEDKVSKAAGSIYEDASVDLMKNAITSIGRIPKERTTLYEIIE	not soluble
MGSDKIHHHHHHMDLRDLTYFETIAELGHLGRAAEKLNRSQPALTKSIQRLEESFGTRLFQRDGRRIKLTPVGELLQARGKELQQSIAQTQREVRDFASGMVGNIRVGCAATMAEYLMPKLTSALLQRTPDVTFKLVIGQDDLLRESLRSGQLDMIICALAPDSDDVTSFAVLKDEAVVIASKHHPIFKTPLQMSDLCAYRWVLPPVSVSSRKWLDTTFAAHGLPLPTVQIEANSISLLPGLIAQSNLLSFVARESLEFGKTMQHLREVPLEQTTLKRTIGVTLRKGGYLSPAAEGMLQMLRDNGGDFLGWG	not soluble
MGSDKIHHHHHHMDNKEKEDEELSDELKDQPGPSEKPRTPTVVAFTKPSFYRVNTVISDVKVCRSMSYDMCGNHQQELLFDLYKDETTGKVYLPRFFKALLESGIRKDDPRIDKMIQNIKDADLLDDFVWGTQHIYLEKDTFKRYIGSSIGVVTKALKKQMIIPDWERFVSDMGEIFEDVRSHNEGDLATYIPQLSRVAPDSWAMSVCTIDGQRKMWGDALKPFCLQSVSKPFTYALVHDDIGPEELHAHVGQEPSGRLFNDISLDHNKKPHNPLINAGAIVVASLLKNKLPLADRFDFMIHACRKFVGSGYIGFDNSVFLSERETADRNYALSYYMREHKVFPKDLNLQDTLDLYFQICSIETNCDSLAVMAATLANGGVNPMNGERIVNNRACRDTLSLMYSCGMYDWSGQFAFHVGLPAKSGVSGDMIIVIPNVMGIALYSPRLDKLGNTVRGVKFAEQLVQKYNFHNYDSLIYSDNKKIDPRRQLKDDHDGQNRFMYATKLGDIAAIKRFLLMGHDIHCKDYDDRTVLHVAAAEGDVVTLEYVLSKWQEDPNPCDRYDRTPLDDAKHFNHTACVKLLEEAITVYNLKGQDD	not soluble
MGSDKIHHHHHHMDNYEGSDPWNTSSNAWTKDDDHVVSTTNSEPSLNGISGEFNTLNFSTPLDTNEEDTGFLPTNDVLEESIWDDSRNPLGATGMSQTPNIAANETVIDKNDARDQNIEESEADLLDWTNNVRKTYRPLDADIIIIEEIPEREGLLFKHANYLVKHLIALPSTSPSEERTVVRRYSDFLWLREILLKRYPFRMIPELPPKRIGSQNADQLFLKKRRIGLSRFINLVMKHPKLSNDDLVLTFLTVRTDLTSWRKQATYDTSNEFADKKISQEFMKMWKKEFAEQWNQAASCIDTSMELWYRITLLLERHEKRIMQMVHERNFFETLVDNFSEVTPKLYPVQQNDTILDINNNLSIIKKHLETTSSICKQETEEISGTLSPKFKIFTDILLSLRSLFERYKIMAANNVVELQRHVELNKEKLESMKGKPDVSGAEYDRIKKIIQKDRRSIIEQSNRAWLIRQCILEEFTIFQETQFLITRAFQDWAKLNSNHAGLKLNEWEKLVTSIMDMPISRE	not soluble
MGSDKIHHHHHHMDQEQLDALANAALEELARRNYGDFFYLSHGKQWDLLRHQKYITDRLQKIIDGEQKYYIIEIPPQHGKSTVITETFPAYYLMRHPDSLVMVVSYSKELFQKFGRKNREKFRLFSDQLFGLQISSETSSVSEWGVEGHLGSLYSTSILGGATGRGARLLIIDDPIKNRAEAESKTIRDKIYNEWQDTFYSRLTADASVIVIMTRWHEDDLAGRLLKEQTLPWEEIKIPAIAEDDDLLGRKPGEALAPEIGKDEEWAAKTKAVTGSRGWAALYQQRPTPAGGNIFKRSWIKFYVPTLSKKIELSLGDDVVILPRLFDRQAQSWDCTFKDTETSDYVSGQVWGKKRADFYLLDRHHERMGIVETMKAIDAMAAKWPKARGIYIEDKANGTAVIEMLKNELSGIIAVNPEGGKEVRANAVAPIWEAGNVYLPHPLVCPWVDDFINELVAFPNAEHDDDVDSMTQILNKMIGKVSLRERYLDN	not soluble
MGSDKIHHHHHHMDSLLMNRRKFLYQFKNVRWAKGRRETYLCYVVKRRDSATSFSLDFGYLRNKNGCHVELLFLRYISDWDLDPGRCYRVTWFTSWSPCYDCARHVADFLRGNPNLSLRIFTARLYFCEDRKAEPEGLRRLHRAGVQIAIMTFKDYFYCWNTFVENHERTFKAWEGLHENSVRLSRQLRRILLPLYEVDDLRDAFRTLGL	not soluble
MGSDKIHHHHHHMDSYKQYIKEALPNLSIHSYKQNEEGWDNVAIIVNDELLFRFPRKQEYAMRIPLEKELCTLLSCSLHEIEVPKYHLFYEKNTDAIPLCSYYTLIHGEPLKTEIVTTLEKQERKALITQLATFLAALHSIPLKSVTALGFPIEKTLTYWKELQAKLNEYVTNSLTSFQKSTLNRLFENFFACLATSKFQNTIIHADFTHHHILFDKQNKTISGVIDFGDAQIGDPAFDFAGLYYDFGHEFTTSVYEQYSTLTSHHDPLLIHRITSFYQYSPLLHNMIYNFETKNELEFLASIEQLKVILQG	not soluble
MGSDKIHHHHHHMDTRKNVSGAERKIWSLIRDCSGKLEGVTETSVLEVLLIVSRVLGIRKEDLFLKDLGVSPTEEKRILELVEKRASGYPLHYILGEKEFMGLSFLVEEGVFVPRPETEELVELALELIRKYGIKTVADIGTGSGAIGVSVAKFSDAIVFATDVSSKAVEIARKNAERHGVSDRFFVRKGEFLEPFKEKFASIEMILSNPPYVKSSAHLPKDVLFEPPEALFGGEDGLDFYREFFGRYDTSGKIVLMEIGEDQVEELKKIVSDTVFLKDSAGKYRFLLLNRRSS	soluble
MGSDKIHHHHHHMDVFSDRVLLTEESPIRKLVPFAEMAKKRGVRIHHLNIGQPDLKTPEVFFERIYENKPEVVYYSHSAGIWELREAFASYYKRRQRVDVKPENVLVTNGGSEAILFSFAVIANPGDEILVLEPFYANYNAFAKIAGVKLIPVTRRMEEGFAIPQNLESFINERTKGIVLSNPCNPTGVVYGKDEMRYLVEIAERHGLFLIVDEVYSEIVFRGEFASALSIESDKVVVIDSVSKKFSACGARVGCLITRNEELISHAMKLAQGRLAPPLLEQIGSVGLLNLDDSFFDFVRETYRERVETVLKKLEEHGLKRFTKPSGAFYITAELPVEDAEEFARWMLTDFNMDGETTMVAPLRGFYLTPGLGKKEIRIACVLEKDLLSRAIDVLMEGLKMFCSSRISC	soluble
MGSDKIHHHHHHMDVVLHIGAHRTASSALQHHLSRNRSKLAEAGVVYWGPKITRGGLFRGAIGGVEGALPWQERRFGKRCALRAEAVRQTGATHLMISDENMVGSLRGALEFTRLYSDAGRRIASYAHGFKTHRMTVALCIRDYADWWVSAMAFRLPRGGPLPRTQARERLVTQPRRWRHVVEDLAQALPDARLVVWSYEASAHALPTLVGDLTGVASADDRAGPRNLRPTAADLHDLMDACDIDPDMFHWPDGQFMPFTVHETEALRAQYQEDLAWLRAGARGFADYIDAPSAQTEAPTDLGRGNPDDGEHRQLA	not soluble
